From PMC4785402, “Structure of ThiM from Vitamin B1 biosynthetic pathway of Staphylococcus aureus – Insights into a novel pro-drug approach addressing MRSA infections” (Scientific Reports, 2016)

Experiments:
SaThiM = target: T1, SaThiM (Staphylococcus aureus, UniProt Q6GEY3); test: X-ray crystal structure of soaked complex, […] Å; format: binding; conditions: Mg2+ in four of the six active sites; active site at monomer interface
T1 construct: gene thiM; homotrimer, active sites between two monomers
T1 sequence (Q6GEY3 1-263): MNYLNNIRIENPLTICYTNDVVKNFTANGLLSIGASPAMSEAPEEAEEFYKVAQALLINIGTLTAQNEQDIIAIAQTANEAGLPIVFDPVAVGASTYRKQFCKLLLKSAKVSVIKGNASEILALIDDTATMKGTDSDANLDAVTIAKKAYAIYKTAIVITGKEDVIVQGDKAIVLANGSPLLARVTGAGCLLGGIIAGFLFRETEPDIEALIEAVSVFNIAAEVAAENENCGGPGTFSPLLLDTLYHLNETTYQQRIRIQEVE

Cc1nccn1CCO = test: purified protein; conditions: 4 mM ATP, 10 mM MgCl2, 50 mM potassium phosphate pH 7.5, 37 °C
purified protein = substrate: Cc1nn(C)c(C)c1CCO; test: purified protein; conditions: 4 mM ATP, 10 mM MgCl2, 50 mM potassium phosphate pH 7.5, 37 °C

With `Cc1ncsc1CCO` [THZ, 5-(hydroxyethyl)-4-methylthiazole] the “X-ray crystal structure of soaked complex, 1.90 Å” value (SaThiM) was “THZ identically occupies all six active sites of the two trimers in the asymmetric unit”.

“SaThiM (Staphylococcus aureus subsp. aureus MRSA252)” was tested, and the Km (Cc1nccn1CCO) was 831 ± 169 µM and the kcat (Cc1nccn1CCO) was 3.63 ± 0.05 s⁻¹.

B1: SaThiM (Staphylococcus aureus subsp. aureus MRSA252) (protein)
chain: T1 sequence (Q6GEY3 1-263)
B1 was tested, and the Km (purified protein) was 834 ± 147 µM and the kcat (purified protein) was 3.58 ± 0.133 s⁻¹.
